Biological target: T1, human activated protein C (human, UniProt P04070 43-197; P04070 212-461)
T1 construct: In the plasma assays aPC is generated in human plasma with Protac; also called aPC; haPC
Experiment: direct antigen coating ELISA (KD ELISA) of Fab periplasmic extract, anti-c-myc HRP
Experimental: Each well of 96-well plates was coated with an anti-Fab antibody in a coating buffer PBS with pH 7.4 at 4° C. The next day, the plates were blocked with casein in PBS with pH 7.4 at 25° C. for 1 hour. Then, Fab PE was added to the plates, and incubated at 25° C. for 1 hour. After the plates were washed, biotinylated antigen was added to the wells and incubated at 25° C. for 1 hour. Then, the biotinylated antigen was incubated with an SA-horseradish peroxidase (HRP) conjugate at 25° C. for 1 hour. HRP activity was detected with a tetramethylbenzidine (TMB) substrate, and the reaction was quenched with 2M HCl. The plates were read at 450 nm. […] The binding-improved mutants with unique sequences of HAPC-14 were ranked by direct antigen coating ELISA.
Each well of 96-well plates was coated with hPro1. biotin in 1×PBS buffer with pH 7.4, and incubation was carried out overnight at 4° C. The next day, the plates were blocked with casein in 1×PBS buffer with pH 7.4 at 25° C. for 1 hour. Fab PE of each mutant diluted according to one concentration was added to the plates and incubated at 25° C. for 1 hour. Then the Fab PE was incubated with goat anti-c-myc HRP conjugated at 25° C. for 1 hour. HRP activity was detected with a tetramethylbenzidine (TMB) substrate, and the reaction was quenched with 2M HCl. OD values of each plate were read at 450 nm.

Binder | Bmax
HAPC-14-R1-1H1-F2 (Fab, V domains shown, Single-site mutant Fab of HAPC-14 in periplasmic extract) VH: EVQLVESGGGLVQPGGSLRLSCAASGFTFSFYYLNWVRQAPGKGLEWVGDIRLKSNNYEKHYAESVKGRFTISRDDSKSITYLQMNSLRAEDTAVYYCAREGDYFDYWGQGTTVTVSS VL: DIQLTQSPSSLSASVGDRVTITCRASESVDSFGATFMHWYQQKPGKAPKLLIYLASNLESGVPSRFSGSGSGTDFTLTISSLQPEDFATYYCQQNNEDPYTFGQGTKLEIK | 0.278
HAPC-14-R1-2L4-B2 (Fab, V domains shown, Single-site mutant Fab of HAPC-14) VH: EVQLVESGGGLVQPGGSLRLSCAASGFTFSNYYLNWVRQAPGKGLEWVGDIRLKSNNYEKHYAESVKGRFTISRDDSKSITYLQMNSLRAEDTAVYYCAREGDYFDYWGQGTTVTVSS VL: DIQLTQSPSSLSASVGDRVTITCRASESVDSFGATFMHWYQQKPGKAPKLLIYLASWLESGVPSRFSGSGSGTDFTLTISSLQPEDFATYYCQQNNEDPYTFGQGTKLEIK | 0.662
HAPC-14-R1-2L4-G9 (Fab, V domains shown, Single-site mutant Fab of HAPC-14; inferred from the clone name (2L4, same site as N57R/W)) VH: EVQLVESGGGLVQPGGSLRLSCAASGFTFSNYYLNWVRQAPGKGLEWVGDIRLKSNNYEKHYAESVKGRFTISRDDSKSITYLQMNSLRAEDTAVYYCAREGDYFDYWGQGTTVTVSS VL: DIQLTQSPSSLSASVGDRVTITCRASESVDSFGATFMHWYQQKPGKAPKLLIYLASKLESGVPSRFSGSGSGTDFTLTISSLQPEDFATYYCQQNNEDPYTFGQGTKLEIK | 0.287
HAPC-14-R1-2L6-G1 (Fab, V domains shown, Single-site mutant Fab of HAPC-14) VH: EVQLVESGGGLVQPGGSLRLSCAASGFTFSNYYLNWVRQAPGKGLEWVGDIRLKSNNYEKHYAESVKGRFTISRDDSKSITYLQMNSLRAEDTAVYYCAREGDYFDYWGQGTTVTVSS VL: DIQLTQSPSSLSASVGDRVTITCRASESVDSFGATFMHWYQQKPGKAPKLLIYLASNLGSGVPSRFSGSGSGTDFTLTISSLQPEDFATYYCQQNNEDPYTFGQGTKLEIK | 0.492
HAPC-14-R1-2L6-F2 (Fab, V domains shown, Single-site mutant Fab of HAPC-14; inferred from the clone name (2L6, same site as E59G/P)) VH: EVQLVESGGGLVQPGGSLRLSCAASGFTFSNYYLNWVRQAPGKGLEWVGDIRLKSNNYEKHYAESVKGRFTISRDDSKSITYLQMNSLRAEDTAVYYCAREGDYFDYWGQGTTVTVSS VL: DIQLTQSPSSLSASVGDRVTITCRASESVDSFGATFMHWYQQKPGKAPKLLIYLASNLKSGVPSRFSGSGSGTDFTLTISSLQPEDFATYYCQQNNEDPYTFGQGTKLEIK | 0.299
HAPC-14-R1-2H6-C2 (Fab, V domains shown, Single-site mutant Fab of HAPC-14) VH: EVQLVESGGGLVQPGGSLRLSCAASGFTFSNYYLNWVRQAPGKGLEWVGDIRLKKNNYEKHYAESVKGRFTISRDDSKSITYLQMNSLRAEDTAVYYCAREGDYFDYWGQGTTVTVSS VL: DIQLTQSPSSLSASVGDRVTITCRASESVDSFGATFMHWYQQKPGKAPKLLIYLASNLESGVPSRFSGSGSGTDFTLTISSLQPEDFATYYCQQNNEDPYTFGQGTKLEIK | 0.262
HAPC-14-R1-2L4-D4 (Fab, V domains shown, Single-site mutant Fab of HAPC-14) VH: EVQLVESGGGLVQPGGSLRLSCAASGFTFSNYYLNWVRQAPGKGLEWVGDIRLKSNNYEKHYAESVKGRFTISRDDSKSITYLQMNSLRAEDTAVYYCAREGDYFDYWGQGTTVTVSS VL: DIQLTQSPSSLSASVGDRVTITCRASESVDSFGATFMHWYQQKPGKAPKLLIYLASRLESGVPSRFSGSGSGTDFTLTISSLQPEDFATYYCQQNNEDPYTFGQGTKLEIK | 0.567
HAPC-14-R1-2L4-A1 (Fab, V domains shown, Single-site mutant Fab of HAPC-14; inferred from the clone name (2L4, same site as N57R/W)) VH: EVQLVESGGGLVQPGGSLRLSCAASGFTFSNYYLNWVRQAPGKGLEWVGDIRLKSNNYEKHYAESVKGRFTISRDDSKSITYLQMNSLRAEDTAVYYCAREGDYFDYWGQGTTVTVSS VL: DIQLTQSPSSLSASVGDRVTITCRASESVDSFGATFMHWYQQKPGKAPKLLIYLASLLESGVPSRFSGSGSGTDFTLTISSLQPEDFATYYCQQNNEDPYTFGQGTKLEIK | 0.244
HAPC-14-R1-1L7-B9 (Fab, V domains shown, Single-site mutant Fab of HAPC-14; inferred from the clone name (1L7 = VL CDR1, 7th residue, the only D of that CDR)) VH: EVQLVESGGGLVQPGGSLRLSCAASGFTFSNYYLNWVRQAPGKGLEWVGDIRLKSNNYEKHYAESVKGRFTISRDDSKSITYLQMNSLRAEDTAVYYCAREGDYFDYWGQGTTVTVSS VL: DIQLTQSPSSLSASVGDRVTITCRASESVASFGATFMHWYQQKPGKAPKLLIYLASNLESGVPSRFSGSGSGTDFTLTISSLQPEDFATYYCQQNNEDPYTFGQGTKLEIK | 0.151

The next lines start with the values.

Bmax | Binder
0.193 | HAPC-14-R1-3H7-F2 (Fab, V domains shown, Single-site mutant Fab of HAPC-14; inferred from the clone name (3H7 = VH CDR3, 7th residue)) VH: EVQLVESGGGLVQPGGSLRLSCAASGFTFSNYYLNWVRQAPGKGLEWVGDIRLKSNNYEKHYAESVKGRFTISRDDSKSITYLQMNSLRAEDTAVYYCAREGDYFDPWGQGTTVTVSS VL: DIQLTQSPSSLSASVGDRVTITCRASESVDSFGATFMHWYQQKPGKAPKLLIYLASNLESGVPSRFSGSGSGTDFTLTISSLQPEDFATYYCQQNNEDPYTFGQGTKLEIK
0.325 | HAPC-14-R1-3H4-C6 (Fab, V domains shown, Single-site mutant Fab of HAPC-14) VH: EVQLVESGGGLVQPGGSLRLSCAASGFTFSNYYLNWVRQAPGKGLEWVGDIRLKSNNYEKHYAESVKGRFTISRDDSKSITYLQMNSLRAEDTAVYYCAREGDTFDYWGQGTTVTVSS VL: DIQLTQSPSSLSASVGDRVTITCRASESVDSFGATFMHWYQQKPGKAPKLLIYLASNLESGVPSRFSGSGSGTDFTLTISSLQPEDFATYYCQQNNEDPYTFGQGTKLEIK
0.24 | HAPC-14-R1-3L1-G8 (Fab, V domains shown, Single-site mutant Fab of HAPC-14) VH: EVQLVESGGGLVQPGGSLRLSCAASGFTFSNYYLNWVRQAPGKGLEWVGDIRLKSNNYEKHYAESVKGRFTISRDDSKSITYLQMNSLRAEDTAVYYCAREGDYFDYWGQGTTVTVSS VL: DIQLTQSPSSLSASVGDRVTITCRASESVDSFGATFMHWYQQKPGKAPKLLIYLASNLESGVPSRFSGSGSGTDFTLTISSLQPEDFATYYCVQNNEDPYTFGQGTKLEIK
0.261 | HAPC-14-R1-3L1-D11 (Fab, V domains shown, Single-site mutant Fab of HAPC-14; inferred from the clone name (3L1, same site as Q93V)) VH: EVQLVESGGGLVQPGGSLRLSCAASGFTFSNYYLNWVRQAPGKGLEWVGDIRLKSNNYEKHYAESVKGRFTISRDDSKSITYLQMNSLRAEDTAVYYCAREGDYFDYWGQGTTVTVSS VL: DIQLTQSPSSLSASVGDRVTITCRASESVDSFGATFMHWYQQKPGKAPKLLIYLASNLESGVPSRFSGSGSGTDFTLTISSLQPEDFATYYCWQNNEDPYTFGQGTKLEIK
0.328 | HAPC-14-R1-3H4-C5 (Fab, V domains shown, Single-site mutant Fab of HAPC-14; inferred from the clone name (3H4 = VH CDR3, 4th residue, same site as Y104T)) VH: EVQLVESGGGLVQPGGSLRLSCAASGFTFSNYYLNWVRQAPGKGLEWVGDIRLKSNNYEKHYAESVKGRFTISRDDSKSITYLQMNSLRAEDTAVYYCAREGDSFDYWGQGTTVTVSS VL: DIQLTQSPSSLSASVGDRVTITCRASESVDSFGATFMHWYQQKPGKAPKLLIYLASNLESGVPSRFSGSGSGTDFTLTISSLQPEDFATYYCQQNNEDPYTFGQGTKLEIK
